Assay results published in paper PMC12861664 (2025).

Target: coxsackievirus B5 Faulkner strain, purified virus (wild type) (coxsackievirus B5 (CV-B5/Faulkner))
Assay: SPR

B1: decay accelerating factor (DAF) protein with tag (receptor)
chain: DCGLPPDVPNAQPALEGRTSFPEDTVITYKCEESFVKIPGEKDSVICLKGSQWSDIEEFCNRSCEVPTRLNSASLKQPYITQNYFPVGTVVEYECRPGYRREPSLSPKLTCLQNLKWSTAVEFCKKKSCPNPGEIRNGQIDVPGGILFGATISFSCNTGYKLFGSTSSFCLISGSSVQWSDPLPECREIYCPAPPQIDNGIIQGERDHYGYRQSVTYACNKGFTMIGEHSIYCTVNNDEGEWSGPPPECRGKSLTSKVPPTVQKPTTVNVPTTEVSPTSQKTTTKTTTPNAQATRSTPVSRTTKHFHETTPNKGSGTTS
Work on B1 yielded a Kd of 5.69 nM.
